Test results as given in patent US20120045395.

Molecular target: SMAD3 (endogenous, A549 cells) (Homo sapiens) (UniProt P84022)
Experiment: cell_activity
Conditions: luciferase activity after TGF-beta in A549; indirect

Sequence of SMAD3 (endogenous, A549 cells) (Homo sapiens) (P84022 2-425): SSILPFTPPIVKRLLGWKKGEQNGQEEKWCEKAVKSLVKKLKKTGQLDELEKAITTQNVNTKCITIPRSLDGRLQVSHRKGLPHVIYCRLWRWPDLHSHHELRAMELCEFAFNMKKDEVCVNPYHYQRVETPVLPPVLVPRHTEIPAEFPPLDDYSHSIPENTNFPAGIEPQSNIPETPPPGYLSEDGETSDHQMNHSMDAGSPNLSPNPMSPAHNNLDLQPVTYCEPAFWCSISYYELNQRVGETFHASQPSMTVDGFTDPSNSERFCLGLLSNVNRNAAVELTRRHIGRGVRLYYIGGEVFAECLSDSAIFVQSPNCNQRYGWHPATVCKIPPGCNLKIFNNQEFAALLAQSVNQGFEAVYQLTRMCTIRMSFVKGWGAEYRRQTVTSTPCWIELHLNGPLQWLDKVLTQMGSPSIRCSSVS

“let-7d promoter -1600 to +87 luciferase reporter (p-let-7d-luc)” gave an activity (% of untreated reporter activity) of less than 30.
